Assay results taken from patent US20250243277A1 (AVACTA LIFE SCIENCES, published 2025).
Where a chain is given by its changes, count along the chain named. Read-outs that look alike come from different tables or passages of the source. Values belong to the molecule of their own block, whether it stands above or below them.

Columns and labels:
[1] = target: papain (UniProt P00784); assay: cell-based or functional assay
[2] = target: T1, human PD-L1-Fc (R&D Systems) (human, UniProt Q9NZQ7 19-239); assay: SPR (Biacore T200): human PD-L1-Fc amine-coupled on a CM5 chip, Affimer monomer titrated as analyte, 1:1 Langmuir fit
T1 construct: Bought from R&D Systems; Biotinylated in-house for the phage selection; also called huPD-L1-Fc; human PD-L1-Fc antigen; not shown: Fc part of the bought fusion
Method: (§1) BIACORE™ T200 binding kinetic analysis was performed on monomer AFFIMER® clones with running buffer HBS-EP+ (Cytiva) and a series S sensor CM5 chip immobilized with human PD-L1-Fc (R&D Systems) in 10 mM Sodium acetate pH4.0 μsing amine coupling reagents (Cytiva). A concentration titration of AFFIMER® monomer was run as analyte with an association time of 150 seconds, followed by a dissociation time of 300 seconds at a flow rate of 30 μl/min. For Clone 80, the association time was increased to 500 seconds and 1000 seconds dissociation time. The human PD-L1-Fc immobilized surface was regenerated with 3-3.5 mM NaOH solution (Cytiva) for 20-30 seconds at 20 μl/min flow rate. The kinetic data was blank subtracted and fit to a 1:1 Langmuir binding model (BIAcore evaluation software; Cytiva) to calculate an apparent KD value.

[3] = target: T1, human PD-L1-Fc (R&D Systems); assay: PD-L1/PD-1 competition ELISA, % inhibition: Affimer pre-incubated with huPD-L1-Fc, then loaded on plate-coated human PD-1-Fc (blocked ligand). Column head on the sheet reads 'EC50nM'; the text calls these values IC50
Method: (§2) The competitive inhibition of AFFIMER® multimers was evaluated by enzyme linked immunosorbent assay (ELISA). Human PD-1-Fc (R&D Systems) was coated at 0.5 μg/ml on the plate. Plates were washed two times with […] of washing buffer (PBS, Tween 20 0.1%) with a plate washer and saturated with Casein 5% (Sigma) in PBS for 90 minutes at room temperature (25±1° C.). Plates were subsequently washed. AFFIMER® polypeptides and controls (human PD-1-Fc; R&D Systems or blank) were then diluted in duplicate, and preincubated with huPD-L1-Fc (R&D Systems) at a predefined concentration equivalent to the EC₈₀ for 30 minutes then loaded on the plate for 90 minutes at room temperature (25±1° C.). Plates were washed 3 times. Biotinylated polyclonal antibody anti-human PD-L1 (R&D Systems) was then diluted in dilution buffer and incubated 90 minutes at room temperature (25±1° C.). Plates were washed 3 times and Streptavidin HRP was incubated for 30 minutes at room temperature (25±1° C.). Plates were washed and the substrate (TMB; Pierce Thermo-Scientific) added to the plate for 10 minutes. The reaction was stopped using an acidic solution and plates were read at absorbance 450-630 nm. The IC₅₀ was then calculated using the interpolated non-linear four-parameter standard curve.

[4] = target: T2, human PD-L1 on CHO cells (human, UniProt Q9NZQ7 19-290); assay: cell-based or functional assay
[5] = target: T2, human PD-L1 on CHO cells; assay: cell-based or functional assay; remark: listed apart in the source
[6] = target: T1, human PD-L1-Fc (R&D Systems); assay: PD-1/PD-L1 competitive ELISA, average n = 2; competitor PD-1-Fc coated
Method: as §2
Analysis identified three mutants which no longer bind target antigen, three mutants which have reduced binding and twelve (12) mutants which retaining binding to target antigen. […] The mutant AFFIMER® clones which retained binding to PD-L1 were assessed in both a competition ELISA (as described in Example 4) and the PD1:PD-L1 blockade cell-based Promega assay (as described in Example 5).

[7] = target: T2, human PD-L1 on CHO cells; assay: flow cytometry histogram, live-gated hu-PD-L1 CHO cells, Affimer at 100 nM
Method: Human PD-L1 CHO cells having a cell surface over expressing human PD-L1 or CHO-negative cells were plated at 50,000 cells per well in a round bottom tissue culture plate. AFFIMER® clones were titrated from 700 nM or monoclonal antibody (mAb) controls titrated from 10 nM in cell staining buffer (PBS, 1% BSA+2 mM EDTA+0.05% Sodium Azide buffer) and incubated for 1 hour. After two washes with staining buffer, AFFIMER® polypeptides were detected with an anti-cystatin antibody. After a further two washes, AF488-conjugated anti-goat antibody (to detect AFFIMER® polypeptides) or AF488-conjugated anti human IgG1 antibody (to detect mAb controls) were incubated for 40 minutes followed by an additional wash step. Viability dye (Zombie Aqua reagent, Biolegend) was added and the plates were incubated for 10 min. After a final wash, cells were fixed and the data acquired using a multiparameter flow cytometer (Guava 12HT, Luminex Corp).

[8] = target: T1, human PD-L1-Fc (R&D Systems); assay: PD-1/PD-L1 competition ELISA, % inhibition: Affimer pre-incubated with huPD-L1-Fc, then loaded on plate-coated human PD-1-Fc (blocked ligand)
Method: as §2, with “curve. […]” for “curve.”

[9] = target: T1, human PD-L1-Fc (R&D Systems); assay: SPR (Biacore T200): human PD-L1-Fc amine-coupled on a CM5 chip, Affimer monomer titrated as analyte (500 s association, 1000 s dissociation), 1:1 Langmuir fit
Method: as §1

[10] = target: T2, human PD-L1 on CHO cells; assay: cell-based or functional assay; remark: listed apart in the source
[11] = target: T1, human PD-L1-Fc (R&D Systems); assay: SPR (Biacore 8K), binding to PD-L1-Fc
[12] = target: T2, human PD-L1 on CHO cells; assay: cell-based or functional assay; remark: listed apart in the source
[13] = target: T2, human PD-L1 on CHO cells; assay: cell-based or functional assay; remark: listed apart in the source
[14] = target: T2, human PD-L1 on CHO cells; assay: cell-based or functional assay; remark: listed apart in the source
[15] = target: T2, human PD-L1 on CHO cells; assay: cell-based or functional assay; remark: listed apart in the source

T1 sequence (Q9NZQ7 19-239 limits assumed): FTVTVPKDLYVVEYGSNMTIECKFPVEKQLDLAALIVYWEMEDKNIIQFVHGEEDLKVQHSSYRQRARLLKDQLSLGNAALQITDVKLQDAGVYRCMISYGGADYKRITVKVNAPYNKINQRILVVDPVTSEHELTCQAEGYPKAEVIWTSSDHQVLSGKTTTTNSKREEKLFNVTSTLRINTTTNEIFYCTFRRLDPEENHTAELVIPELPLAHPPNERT
T2 sequence (Q9NZQ7 19-290): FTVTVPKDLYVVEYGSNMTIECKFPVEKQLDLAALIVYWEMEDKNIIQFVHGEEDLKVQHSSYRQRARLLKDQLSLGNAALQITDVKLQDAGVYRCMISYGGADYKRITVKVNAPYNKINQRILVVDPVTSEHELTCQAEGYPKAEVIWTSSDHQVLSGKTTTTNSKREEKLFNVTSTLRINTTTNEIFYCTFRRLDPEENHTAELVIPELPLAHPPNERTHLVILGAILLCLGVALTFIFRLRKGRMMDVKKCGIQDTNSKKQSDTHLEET
Sequence of papain (P00784 134-345 limits assumed): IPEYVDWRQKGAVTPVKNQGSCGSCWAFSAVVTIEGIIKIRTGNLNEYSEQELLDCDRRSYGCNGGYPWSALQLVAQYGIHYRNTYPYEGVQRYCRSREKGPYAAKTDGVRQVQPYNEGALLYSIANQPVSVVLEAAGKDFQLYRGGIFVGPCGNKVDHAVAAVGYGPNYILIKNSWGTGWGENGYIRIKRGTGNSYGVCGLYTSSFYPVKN

B2: Clone 80 (designed binder)
chain: MIPGGLSEAKPATPEIQEIVDKVKPQLEEKTGETYGKLEAVQYKTQVVRRKHFPQWPGTNYYIKVRAGDNKYMHLKVFKSLDLQPREVFQEDLVLTGYQVDKNKDDELTGF
notes: type III Affimer monomer made in E. coli; His-tagged; also called Clone 80 parent control molecule
IC50, PD-1/PD-L1 blockade Bioassay (Promega) [4]: 30 nM
EC50 (read off the curve); Promega PD-1/PD-L1 blockade bioassay, fold of induction [5]: ~80 nM
IC50 [6]: 2.6 nM
% (cells in the positive gate) [7]: 98.9%
MFI [7]: 1330 MFI
IC50 [8]: 0.19 nM
Kd [9]: 0.568 nM
koff [9]: 0.00163 s⁻¹
kon [9]: 2.88e+06 M⁻¹ s⁻¹
EC50 [3]: 0.538 nM

B3: Clone 80 Q90A (designed binder)
chain: B2 chain with Q90A
notes: alanine mutant of Clone 80 made in E. coli
EC50 (read off the curve); Promega PD-1/PD-L1 blockade bioassay, fold of induction [10]: ~100 nM
Kd [11]: 0.97 nM
IC50 [6]: 2.23 nM

B5: Clone 80 E87A (designed binder)
chain: B2 chain with E87A
notes: as for B3
EC50 (read off the curve); Promega PD-1/PD-L1 blockade bioassay, fold of induction [13]: ~100 nM
Kd [11]: 0.61 nM
IC50 [6]: 3.83 nM

B6: Clone 80 K51A (designed binder)
chain: B2 chain with K51A
notes: as for B3
EC50 (read off the curve); Promega PD-1/PD-L1 blockade bioassay, fold of induction [14]: ~200 nM
Kd [11]: 0.66 nM
IC50 [6]: 3.35 nM

B8: Clone 80 V88A (designed binder)
chain: B2 chain with V88A
notes: as for B3
EC50 (read off the curve); Promega PD-1/PD-L1 blockade bioassay, fold of induction [15]: ~100 nM
Kd [11]: 1.96 nM
IC50 [6]: 2.56 nM

B10: Clone 255 (designed binder)
chain: MIPRGLSEAKPATPEIQEIVDKVKPQLEEKTNETYGKLEAVQYKTQVLAREGRQDWVLSTNYYIKVRAGDNKYMHLKVFNGPWVPFPHQQLADRVLTGYQVDKNKDDELTGF
notes: type I Affimer monomer
IC50, PD-1/PD-L1 blockade Bioassay (Promega) [4]: 30 nM
% (cells in the positive gate) [7]: 98%
MFI [7]: 1010 MFI
EC50 [3]: 0.205 nM

B11: Clone 58 (designed binder)
chain: MIPGGLSEAKPATPEIQEIVDKVKPQLEEKTGETYGKLEAVQYKTQVVKQLIIWHWTGTNYYIKVRAGDNKYMHLKVFKSLFKNSNSHLEEDLVLTGYQVDKNKDDELTGF
notes: His-tagged
EC50 [3]: 69.9 nM

B12: Clone 52 (designed binder)
chain: MIPGGLSEAKPATPEIQEIVDKVKPQLEEKTGETYGKLEAVQYKTQVVGIREDWNWSGTNYYIKVRAGDNKYMHLKVFKSLFEPKKLEPAEDLVLTGYQVDKNKDDELTGF
notes: His-tagged
EC50 [3]: 197 nM

Results, then the molecule that gave them:

IC50, inhibition of papain cleavage of Z-Phe-Arg-AMC [1]: 3.8 nM
Molecule: Stefin A (from UniProt P01040 1-98)

Kd [2]: 45.6 nM
koff [2]: 0.0909 s⁻¹
kon [2]: 1.99e+06 M⁻¹ s⁻¹
EC50 [3]: 16.9 nM
B1: Clone 54 (designed binder)
chain: MIPGGLSEAKPATPEIQEIVDKVKPQLEEKTGETYGKLEAVQYKTQVVINQQQIKHSGTNYYIKVRAGDNKYMHLKVFKSLWQHIPPDFWEDLVLTGYQVDKNKDDELTGF
notes: type III Affimer monomer; His-tagged

EC50 (read off the curve); Promega PD-1/PD-L1 blockade bioassay, fold of induction [12]: ~70 nM
Kd [11]: 4.02 nM
IC50 [6]: 2.33 nM
B4: Clone 80 R86A (designed binder)
chain: B2 chain with R86A
notes: as for B3

EC50 (read off the curve); Promega PD-1/PD-L1 blockade bioassay, fold of induction [5]: ~200 nM
Kd [11]: 2 nM
IC50 [6]: 4.83 nM
B7: Clone 80 R49A (designed binder)
chain: B2 chain with R49A
notes: as for B3

% (cells in the positive gate) [7]: 98.1%
MFI [7]: 1240 MFI
EC50 [3]: 8.55 nM
B9: Clone 256 (designed binder)
chain: MIPRGLSEAKPATPEIQEIVDKVKPQLEEKTNETYGKLEAVQYKTQVLAKEHGPDSWWSTNYYIKVRAGDNKYMHLKVFNGPQEKNQWVEEADRVLTGYQVDKNKDDELTGF
notes: type I Affimer monomer
